Reference: paper PMC8213813, “Mechanism of genome instability mediated by human DNA polymerase mu misincorporation”

Experiments:
[1] = target: T1, DNA polymerase mu core domain K438A/Q441A (Homo sapiens, UniProt Q9NP87 136-494, K438A;Q441A;del398-410); test: X-ray crystallography; post-insertion; second dGTP (10 mM soak), 10 mM Mg2+, Na+; Crystals: protein (~7 mg/ml in 25 mM Tris/HCl pH 7.5, 100 mM KCl, 1 mM DTT) with DNA at 1:1.5; binary: 0.1 M sodium citrate pH 5.5, 18% 2-propanol, PEG4000; ternary: pH 6.5-8.0, PEG3350 or PEG10000; nucleotide/metal soak 4 h at 4 °C; conditions: protein: recombinant; tags: His (pET28a, nickel purified); template 9 nt + extended primer 5 nt + downstream primer 4 nt; nascent dG displaced by second dGTP
[2] = target: T2, DNA polymerase mu core domain (WT) (Homo sapiens, UniProt Q9NP87 136-494, del398-410); test: X-ray crystallography; dGMPNPP, 10 mM Mg2+ (Complex 1); Crystals: protein (~7 mg/ml in 25 mM Tris/HCl pH 7.5, 100 mM KCl, 1 mM DTT) with DNA at 1:1.5; binary: 0.1 M sodium citrate pH 5.5, 18% 2-propanol, PEG4000; ternary: pH 6.5-8.0, PEG3350 or PEG10000; nucleotide/metal soak 4 h at 4 °C; conditions: protein: recombinant; tags: His (pET28a, nickel purified); template 10 nt + upstream primer 4 nt + downstream primer 4 nt; 2-nt gap; blunt outer ends
[3] = target: T2, DNA polymerase mu core domain (WT); test: X-ray crystallography; binary; Mg2+; Crystals: protein (~7 mg/ml in 25 mM Tris/HCl pH 7.5, 100 mM KCl, 1 mM DTT) with DNA at 1:1.5; binary: 0.1 M sodium citrate pH 5.5, 18% 2-propanol, PEG4000; ternary: pH 6.5-8.0, PEG3350 or PEG10000; nucleotide/metal soak 4 h at 4 °C; conditions: protein: recombinant; tags: His (pET28a, nickel purified); template 9 nt + upstream primer 4 nt + downstream primer 4 nt; 1-nt gap; blunt outer ends
[4] = target: DNA polymerase mu core domain Q441A (Homo sapiens, UniProt Q9NP87 136-494, Q441A;del398-410); test: X-ray crystallography; dGMPNPP, 10 mM Mg2+ (Complex 4); Crystals: protein (~7 mg/ml in 25 mM Tris/HCl pH 7.5, 100 mM KCl, 1 mM DTT) with DNA at 1:1.5; binary: 0.1 M sodium citrate pH 5.5, 18% 2-propanol, PEG4000; ternary: pH 6.5-8.0, PEG3350 or PEG10000; nucleotide/metal soak 4 h at 4 °C; conditions: protein: recombinant; tags: His (pET28a, nickel purified); template 9 nt + upstream primer 4 nt + downstream primer 4 nt; 1-nt gap; blunt outer ends
[5] = target: T1, DNA polymerase mu core domain …; test: X-ray crystallography; dGMPNPP, 10 mM Mg2+ (Complex 5); Crystals: protein (~7 mg/ml in 25 mM Tris/HCl pH 7.5, 100 mM KCl, 1 mM DTT) with DNA at 1:1.5; binary: 0.1 M sodium citrate pH 5.5, 18% 2-propanol, PEG4000; ternary: pH 6.5-8.0, PEG3350 or PEG10000; nucleotide/metal soak 4 h at 4 °C; conditions: protein: recombinant; tags: His (pET28a, nickel purified); template 9 nt + upstream primer 4 nt + downstream primer 4 nt; 1-nt gap; blunt outer ends

T1 sequence (Q9NP87 other isoform, or with tags, fused parts or gaps K438A;Q441A;del398-410 | K438A Q441A K438A Q441A): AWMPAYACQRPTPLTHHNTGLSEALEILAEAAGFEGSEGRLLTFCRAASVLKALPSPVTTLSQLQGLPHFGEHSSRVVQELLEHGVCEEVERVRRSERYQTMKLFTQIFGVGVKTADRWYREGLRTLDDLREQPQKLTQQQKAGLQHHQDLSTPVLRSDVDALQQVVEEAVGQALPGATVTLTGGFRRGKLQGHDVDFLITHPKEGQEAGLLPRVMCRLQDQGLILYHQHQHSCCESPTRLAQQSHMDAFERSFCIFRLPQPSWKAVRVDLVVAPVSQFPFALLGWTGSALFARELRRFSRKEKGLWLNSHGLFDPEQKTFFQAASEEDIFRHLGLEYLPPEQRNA
T2 sequence (Q9NP87 other isoform, or with tags, fused parts or gaps del398-410): as the sequence (Q9NP87 other isoform, or with tags, fused parts or gaps K438A;Q441A;del398-410 | K438A Q441A K438A Q441A) above, with A290K, A293Q counted along it
Sequence of DNA polymerase mu core domain Q441A (Q9NP87 other isoform, or with tags, fused parts or gaps Q441A;del398-410 | Q441A Q441A): as the sequence (Q9NP87 other isoform, or with tags, fused parts or gaps K438A;Q441A;del398-410 | K438A Q441A K438A Q441A) above, with A290K counted along it

B1: 1-nt gapped DNA after dGTP insertion (T:G product) (dsDNA)
DNA 1: CGGCTTACG
DNA 2: CGTAG
DNA 3: GCCG
modifications: 5'-phosphate on downstream primer
**Q.** Does B1 bind [1]?
**A.** Result: binds

B2: 2-nt gapped DNA, templating TT (crystallization) (dsDNA)
DNA 1: CGGCTTTACG
DNA 2: CGTA
DNA 3: GCCG
modifications: 5'-phosphate on downstream primer
**Q.** Does B2 bind [2]?
**A.** Result: binds

B3: 1-nt gapped DNA, templating T (crystallization) (dsDNA)
DNA 1: CGGCTTACG
DNA 2: CGTA
DNA 3: GCCG
modifications: 5'-phosphate on downstream primer
**Q.** Does B3 bind [3]?
**A.** Result: binds

**Q.** Does B3 bind [4]?
**A.** Result: binds

**Q.** Does B3 bind [5]?
**A.** Result: binds
